Measurements published in the RNAGym collection of RNA variant scans (doi:10.1021/acssynbio.7b00057).

B1: Pistol ribozyme (parent)
chain: GGGUCGUUGUUCCAUAAUCGCGUGGAUAUGGCACGCAAGUUUCUACCGGGCACCGUAAAUGUCCGACUGGAGCCGUUCGGGCGGCUAUAAACAGACCUCAGGCCCGAAGCGUGGCGGCACCUGCCGCCGGUGGUAAAAAAGAUCGGAAGAGCACACGUCU

Variants of: B1
Experiment: aptazyme ON/OFF ratio, guanine; higher = stronger switching; co-transcriptional cleavage with and without guanine

Variant	aptazyme ON/OFF ratio
U10A U11A C13A	1.31
U10A U11A C12U C13G	1.35
U10A U11A C12U C13U	1.69
U10A U11A C12U C13A	1.54
G9U U10C C13G	1.13
G9U U10C C13U	1.72
G9U U10C C13A	1.22
G9U U10G U11C C12U	1.08
G9U U10G U11C C12G	1.65
G9U U10G U11C C12A	1.69
G9U U10C U11G C12G	1.2
G9U U10C U11G C12A	1.13
G9U U10C U11G C12U	2.12
G9U U10G U11A C12A C13A	1.56
G9U U10G U11A C12A C13G	1.7
G9U U10G U11A C12A C13U	1.37
G9U U11A C12A C13A	1.59
G9U U11A C12A C13U	1.23
G9U U11A C12A C13G	1.31
G9U U11A C12G C13G	1.2
G9U U11A C12G C13U	1

Variant	aptazyme ON/OFF ratio
G9U U11A C12G C13A	1.82
U10C	3.69
U10A	1.15
U10A U11C C12U C13U	1.03
U10A U11C C12U C13A	1.06
U10A U11C C12U C13G	1.08
G9U U10A U11C C13G	1.04
G9U U10A U11C C13U	1.17
G9U U10A U11C C13A	1.53
G9U U10C U11A C12U C13A	1.49
G9U U10C U11A C12U C13U	1.54
G9U U10C U11A C12U C13G	1.35
G9U U10C U11A C12A C13U	1.57
G9U U10C U11A C12A C13A	1.53
G9U U10C U11A C12A C13G	1.24
U10A U11A C12G C13A	1.42
U10A U11A C12G C13U	1.23
U10A U11A C12G C13G	1.3
G9U U10G U11A	1.2
G9U U10G U11G	1.55
G9U U10G U11C	1.28

Variant	aptazyme ON/OFF ratio
G9U U10C U11G C12U C13U	1.41
G9U U10C U11G C12U C13G	1.34
G9U U10C U11G C12U C13A	1.46
G9U U11A C12U	1.47
G9U U11A C12A	2.63
G9U U11A C12G	1.55
U10A U11G C12G C13U	1.43
U10A U11G C12G C13A	1.27
U10A U11G C12G C13G	1.42
U10A U11C C12A C13G	1.28
U10A U11C C12A C13A	1.17
U10A U11C C12A C13U	1.23
G9U U10C U11A C12A	1.47
G9U U10C U11A C12U	1.89
G9U U10C U11A C12G	1.76
U10A C12G C13G	1.17
U10A C12G C13U	1.47
U10A C12G C13A	1.4
U10C U11G C12U	1.31
U10C U11G C12G	1.25
U10C U11G C12A	1.1

Variant	aptazyme ON/OFF ratio
U10A U11C C13G	1.04
U10A U11C C13U	1.01
U10A U11C C13A	1.02
U10C U11A C12G C13U	1.37
U10C U11A C12G C13G	1.25
U10C U11A C12G C13A	1.29
G9U U10C U11C C13U	1.03
G9U U10C U11C C13A	1.04
G9U U10C U11C C13G	1.06
G9U U10G C12G C13A	1.44
G9U U10G C12G C13U	1.23
G9U U10G C12G C13G	1.41
G9U U10A U11C C12U	1.79
G9U U10A U11C C12G	1.57
G9U U10A U11C C12A	1.72
G9U U11C C12U C13U	1.34
G9U U11C C12U C13A	1.51
G9U U11C C12U C13G	1.23
U10A U11C C12U	1.04
U10A U11C C12A	1.16
U10A U11C C12G	1.15
